Reference: the supplement of paper PMC10126150
± gives the standard deviation of the averaged measurements.

System: ATP
Test: switch fluorescence ratio, 500 uM ATP over buffer (Cy3 cluster intensity, sum of 5 cycles each) (fold (ratio)); higher = stronger signal-on switching upon ATP binding; sequences stand for … in TCGTCGGCAGCGTCAGATGTGTATAAGAGACAGTTTTTTTTTTTTTTTTTTTTTTTTT…TC
Details: aptamer strand: ATP DNA aptamer (quencher-CACCTGGGGGAGTATTGCGGAGGAAGG + anchor), 100 nM annealed; ATP concentration: 500 uM
In short: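 The quencher-labelled ATP aptamer, at 100 nM, was annealed to Cy3-labelled switching-strand clusters on a modified Illumina MiSeq flow-cell. The clusters were imaged in selection buffer, then after 15 min with 500 uM ATP at 22 °C, and this buffer/ATP cycle ran five times with NaOH stripping and re-annealing between runs. Per-cluster fluorescence ratios, summed target-cycle over summed buffer-cycle Cy3 intensity, were averaged per switch-domain sequence. Clusters outside 100-1000 RFU were excluded.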
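Also: ATP exposure 15 min at 22 °C before imaging.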

Sequence | switch fluorescence ratio
GGGGTCCTTT | 0.9886 ± 0.0044
AGAGTGTTGG | 0.985 ± 0.034
ACGCGCCTGG | 1.05 ± 0.043
TTTGTGTGTC | 1 ± 0.025
CCTAGGCTTT | 1.117 ± 0.0063
ATGGGACGTT | 0.983 ± 0.037
ATTAGTTTTG | 0.99 ± 0.029
GGGGATGGCA | 1.02 ± 0.012
GGGTGCAGCG | 0.993 ± 0.03
ACTTGGACGC | 1.14 ± 0.044
TTTCGGTTGC | 1.07 ± 0.11
TGGGGGTAAC | 1.1 ± 0.18
CTGGCGCGGG | 1.02 ± 0.042
GAAAGTAATT | 0.996 ± 0.051
TCAAGCCCAT | 1 ± 0.045
TACATGAAGA | 1.02 ± 0.013
TAGTTGAGCT | 0.9997 ± 0.0061
CGACTTACAT | 1.24 ± 0.057
GCTAGGCTGG | 0.97301 ± 0.0002
TAATTTGTCG | 0.982 ± 0.023
ATGTAATATT | 1.01 ± 0.033
TTGATACAGG | 1.29 ± 0.37
GCAAAAGGAA | 0.975 ± 0.022

Sequence | switch fluorescence ratio
GTGGCTTAGG | 0.9796 ± 0.0035
CGAACTGTGG | 0.9673 ± 0.009
CGTTTTCGGG | 1.02 ± 0.016
ATTACTTAAG | 1 ± 0.046
ATTTTTGTTC | 1.0252 ± 0.00061
GGATTATTTT | 1 ± 0.012
TTAAAAAGGG | 0.995 ± 0.029
AAAGATTTGT | 0.978 ± 0.016
GGAGTGAGGT | 0.999 ± 0.03
GTTTTGTGGA | 1.01 ± 0.007
TTGTTTGGAT | 1.01 ± 0.05
CCATGTGACT | 1.034 ± 0.0057
TTAGGAAGAC | 2.27 ± 1.4
ATTGTGTTTT | 0.99 ± 0.062
CGATTTCCTA | 0.987 ± 0.015
GTTGCAGTTG | 1.07 ± 0.077
AGGGGGTAAT | 1.01 ± 0.049
TAATGGTATT | 0.97547 ± 0.00097
CGAGTTCGTT | 1 ± 0.025
GATTTCCTGG | 1.01 ± 0.02
GCAGTAGTTA | 1.03 ± 0.013
TTACGGGGCA | 1.04 ± 0.019
GTAATAGGTC | 1.013 ± 0.0088

Sequence | switch fluorescence ratio
TCTTTGACGC | 1.21 ± 0.013
GGGTAGTGAG | 0.999 ± 0.02
TAGACGTCGT | 0.965 ± 0.024
ATTGTGCTTT | 1.04 ± 0.024
TTCGTTTACA | 1.01 ± 0.028
TTAGGTACCG | 1.012 ± 0.0016
TTCCGGGGTA | 1.02 ± 0.032
CGGACAGGAG | 0.98 ± 0.051
TTCAAGTTGG | 0.974 ± 0.024
GTTGTATAGA | 1 ± 0.019
TAGGAAAAAA | 1.03 ± 0.033
AGGGCGGTCA | 0.996 ± 0.025
TTACTATCTG | 1.01 ± 0.019
ATATGTGTGA | 0.968 ± 0.029
GTTGTACGGG | 1.02 ± 0.047
TTTTTTGATT | 1.01 ± 0.02
CGTAGTGGAA | 0.9919 ± 0.0061
ATAATGGTTG | 1.04 ± 0.043
TTGGTGACGC | 1.01 ± 0.026
TTTACTCGGC | 1.08 ± 0.16
AAACTTGTAC | 1.1 ± 0.036
AAGAGAGTAT | 0.992 ± 0.0083
AAGGCGTCGG | 0.993 ± 0.026

Sequence | switch fluorescence ratio
GTTTGTGTAC | 1.11 ± 0.075
GGTCTACATT | 1.01 ± 0.032
TTTTTTAGGT | 0.99 ± 0.03
TAGGATTGTG | 0.9991 ± 0.0081
CGGTTAAAAA | 0.982 ± 0.066
ATCATTTAAT | 1.009 ± 0.0054
CGGGTTTTCC | 1.03 ± 0.042
TATTTGTACT | 1 ± 0.013
AGGTGTTGGG | 1.01 ± 0.035
GGGATCTAGG | 0.974 ± 0.026
TCATGGATTT | 1.01 ± 0.026
AGAATTTTCC | 1.08 ± 0.076
CGTCTGTCTC | 1.045 ± 0.005
CATAAGATCC | 0.994 ± 0.025
CGCTTCGGTT | 0.963 ± 0.032
ATGCAAGGTT | 1.01 ± 0.018
GTGTTTTCGT | 0.993 ± 0.03
AAACCTCTGG | 0.965 ± 0.02
ATGATGTGGT | 0.992 ± 0.022
AGAGTGTATG | 1.006 ± 0.0086
TTAGTAGTGC | 1.02 ± 0.035
GGGGTGATAG | 1 ± 0.042
TGTTGTGAGG | 0.997 ± 0.025

Sequence | switch fluorescence ratio
TGGTTTTGAT | 1.001 ± 0.0047
ATTGTATGGT | 0.956 ± 0.012
TTTTTTGAGA | 0.975 ± 0.017
TCTATTATTG | 0.98 ± 0.011
GAAAGGGTGT | 1.03 ± 0.026
TTCGGGAACT | 1 ± 0.038
ATAAAGCTCT | 1.01 ± 0.019
CATTTTTTTT | 0.995 ± 0.02
GGGTTGTGTG | 0.991 ± 0.11
ATTTTAGAGT | 1.018 ± 0.0063
GGTAAAAGAT | 0.977 ± 0.015
TACCGCGGTT | 1.04 ± 0.03
TTTGAATTAT | 0.975 ± 0.021
CAGCTGCATT | 1.305 ± 0.013
AGGTGTAGGG | 1.01 ± 0.025
TTAGGTCCGG | 1.008 ± 0.0092
ATATTGGGTA | 0.997 ± 0.022
ACGGTCAGGG | 1.046 ± 0.0074
TACGATGCTT | 1.2 ± 0.028
TTGTATTTGT | 0.999 ± 0.031
GGGTCGGGAG | 0.979 ± 0.027
CGGGGGGTAC | 1.03 ± 0.036
GGTCAGGGTA | 1.01 ± 0.04

Sequence | switch fluorescence ratio
ATATCTTATG | 0.964 ± 0.023
TGAAAAAAT | 0.977 ± 0.051
TTTCTCTGAT | 0.9813 ± 0.0042
GTAATCATTT | 0.9667 ± 0.0093
TTTTTCTGGG | 0.977 ± 0.0099
ATATTAATTT | 0.989 ± 0.023
TCCCGGGAAT | 0.987 ± 0.031
GCTAACCCTT | 1.06 ± 0.0036
TTTGCTAGGT | 1.02 ± 0.031
GGGGCTGCTT | 0.9718 ± 0.0035
GAAGCGGTGG | 0.954 ± 0.09
TGGGGCTAAT | 1.02 ± 0.034
CGTTGCTTAG | 0.988 ± 0.024
TATTAAGGGT | 0.979 ± 0.029
CGAGGTAGGG | 1.01 ± 0.073
TCCATGGGAT | 1.007 ± 0.0014
TCAGGTCTGT | 0.9958 ± 0.0074
ATGGGCGAAC | 1.63 ± 0.82
ATGCCCAGCT | 1.0068 ± 0.00025
TATGGCCCGG | 1.02 ± 0.0014
TTGCAAATTT | 1.79 ± 1.4
AAAGGGGTAC | 1.04 ± 0.016
CAGGCAAGCT | 1.061 ± 0.0071

Sequence | switch fluorescence ratio
TGTTTAAATA | 1.033 ± 0.0035
AGTGAGTGTA | 0.979 ± 0.015
AACAACATAG | 1.02 ± 0.036
GCCCGTTCGG | 1.01 ± 0.028
CGGGGATTTC | 1 ± 0.027
CTGCAACAGA | 1.0455 ± 0.00015
TAGCAAGTGG | 0.998 ± 0.043
TAGCGTCTGT | 0.983 ± 0.02
TTAGTGTCGT | 1.02 ± 0.017
ATTTTGAAGC | 0.991 ± 0.016
GTTGGGGAAG | 0.972 ± 0.034
TCGGTGTCGG | 0.98 ± 0.037
AGATAGGGAG | 0.9786 ± 0.0031
TTATAGAGGT | 1.01 ± 0.011
TATCCCTGCT | 1 ± 0.027
TTAGTATTTA | 1.01 ± 0.056
ATTAAGGGCA | 0.97 ± 0.011
ATAACATGAC | 1.21 ± 0.0044
AGAGCATGGG | 0.971 ± 0.016
